Data taken from article PMC3027617 (2011).

Target: 2F5 epitope scaffold ES1
Assay: SPR

B1: 2F5 monoclonal antibody (antibody, V domains shown)
VH: RITLKESGPPLVKPTQTLTLTCSFSGFSLSDFGVGVGWIRQPPGKALEWLAIIYSDDDKRYSPSLNTRLTITKDTSKNQVVLVMTRVSPVDTATYFCAHRRGPTTLFGVPIARGPVNAMDVWGQGITVTISS
VL: ALQLTQSPSSLSASVGDRITITCRASQGVTSALAWYRQKPGSPPQLLIYDASSLESGVPSRFSGSGSGTEFTLTISTLRPEDFATYYCQQLHFYPHTFGGGTRVDVR
- koff: 0.00109 s⁻¹
